# Measurements reported in IntAct's records for PubMed 30126976.
# B1: Corticotropin-releasing factor receptor 1 (Homo sapiens), P34998-1 (parent)
# chain: MGGHPQLRLVKALLLLGLNPVSASLQDQHCESLSLASNISGLQCNASVDLIGTCWPRSPAGQLVVRPCPAFFYGVRYNTTNNGYRECLANGSWAARVNYSECQEILNEEKKSKVHYHVAVIINYLGHCISLVALLVAFVLFLRLRPGCTHWGDQADGALEVGAPWSGAPFQVRRSIRCLRNIIHWNLISAFILRNATWFVVQLTMSPEVHQSNVGWCRLVTAAYNYFHVTNFFWMFGEGCYLHTAIVLTYSTDRLRKWMFICIGWGVPFPIIVAWAIGKLYYDNEKCWFGKRPGVYTDYIYQGPMILVLLINFIFLFNIVRILMTKLRASTTSETIQYRKAVKATLVLLPLLGITYMLFFVNPGEDEVSRVVFIYFNSFLESFQGFFVSVFYCFLNSEVRSAIRKRWHRWQDKHSIRARVARAMSIPTSPTRVSFHSIKQSTAV
# B2: FERM and PDZ domain-containing protein 4 (Homo sapiens), Q14CM0 (parent)
# chain: MDVFSFVKIAKLSSHRTKSSGWPPPSGTWGLSQVPPYGWEMTANRDGRDYFINHMTQAIPFDDPRLESCQIIPPAPRKVEMRRDPVLGFGFVAGSEKPVVVRSVTPGGPSEGKLIPGDQIVMINDEPVSAAPRERVIDLVRSCKESILLTVIQPYPSPKSAFISAAKKARLKSNPVKVRFSEEVIINGQVSETVKDNSLLFMPNVLKVYLENGQTKSFRFDCSTSIKDVILTLQEKLSIKGIEHFSLMLEQRTEGAGTKLLLLHEQETLTQVTQRPSSHKMRCLFRISFVPKDPIDLLRRDPVAFEYLYVQSCNDVVQERFGPELKYDIALRLAALQMYIATVTTKQTQKISLKYIEKEWGLETFLPSAVLQSMKEKNIKKALSHLVKANQNLVPPGKKLSALQAKVHYLKFLSDLRLYGGRVFKATLVQAEKRSEVTLLVGPRYGISHVINTKTNLVALLADFSHVNRIEMFSEEESLVRVELHVLDVKPITLLMESSDAMNLACLTAGYYRLLVDSRRSIFNMANKKNTATQETGPENKGKHNLLGPDWNCIPQMTTFIGEGEQEAQITYIDSKQKTVEITDSTMCPKEHRHLYIDNAYSSDGLNQQLSQPGEAPCEADYRSLAQRSLLTLSGPETLKKAQESPRGAKVSFIFGDFALDDGISPPTLGYETLLDEGPEMLEKQRNLYIGSANDMKGLDLTPEAEGIQFVENSVYANIGDVKSFQAAEGIEEPLLHDICYAENTDDAEDEDEVSCEEDLVVGEMNQPAILNLSGSSDDIIDLTSLPPPEGDDNEDDFLLRSLNMAIAAPPPGFRDSSDEEDSQSQAASFPEDKEKGSSLQNDEIPVSLIDAVPTSAEGKCEKGLDNAVVSTLGALEALSVSEEQQTSDNSGVAILRAYSPESSSDSGNETNSSEMTESSELATAQKQSENLSRMFLATHEGYHPLAEEQTEFPASKTPAGGLPPKSSHALAARPATDLPPKVVPSKQLLHSDHMEMEPETMETKSVTDYFSKLHMGSVAYSCTSKRKSKLADGEGKAPPNGNTTGKKQQGTKTAEMEEEASGKFGTVSSRDSQHLSTFNLERTAFRKDSQRWYVATEGGMAEKSGLEAATGKTFPRASGLGAREAEGKEEGAPDGETSDGSGLGQGDRFLTDVTCASSAKDLDNPEDADSSTCDHPSKLPEADESVARLCDYHLAKRMSSLQSEGHFSLQSSQGSSVDAGCGTGSSGSACATPVESPLCPSLGKHLIPDASGKGVNYIPSEERAPGLPNHGATFKELHPQTEGMCPRMTVPALHTAINTEPLFGTLRDGCHRLPKIKETTV
# B3: Peroxiredoxin-5, mitochondrial (Homo sapiens), P30044 (parent)
# chain: MGLAGVCALRRSAGYILVGGAGGQSAAAAARRYSEGEWASGGVRSFSRAAAAMAPIKVGDAIPAVEVFEGEPGNKVNLAELFKGKKGVLFGVPGAFTPGCSKTHLPGFVEQAEALKAKGVQVVACLSVNDAFVTGEWGRAHKAEGKVRLLADPTGAFGKETDLLLDDSLVSIFGNRRLKRFSMVVQDGIVKALNVEPDGTGLTCSLAPNIISQL
# B4: Solute carrier family 15 member 5 (Homo sapiens), A6NIM6 (parent)
# chain: MSVTGFTITDEKVHLYHSIEKEKTVRHIGDLCSSHSVKKIQVGICLLLVELCERFTFFEVVCNMIPFCTIKLGYHNCQAAILNLCFIGTSILTPVFVRWLTDVYLGRNKLVYICLFLHFLGTALLSVVAFPLEDFYLGTYHAVNNIPKTEQHRLFYVALLTICLGIGGVRAIVCPLGAFGLQEYGSQKTMSFFNWFYWLMNLNATIVFLGISYIQHSQAWALVLLIPFMSMLMAVITLHMIYYNLIYQSEKRCSLLTGVGVLVSALKTCHPQYCHLGRDVTSQLDHAKEKNGGCYSELHVEDTTFFLTLLPLFIFQLLYRMCIMQIPSGYYLQTMNSNLNLDGFLLPIAVMNAISSLPLLILAPFLEYFSTCLFPSKRVGSFLSTCIIAGNLFAALSVMIAGFFEIHRKHFPAVEQPLSGKVLTVSSMPCFYLILQYVLLGVAETLVNPALSVISYRFVPSNVRGTSMNFLTLFNGFGCFTGALLVKLVYLISDGNWFPNTLNKGNLESFFFFLASLTLLNVLGFCSVSQRYCNLNHFNAQNIRGSNLEETLLLHEKSLKFYGSIQEFSSSIDLWETAL
# B5: Monocarboxylate transporter 2 (Homo sapiens), O60669 (parent)
# chain: MPPMPSAPPVHPPPDGGWGWIVVGAAFISIGFSYAFPKAVTVFFKEIQQIFHTTYSEIAWISSIMLAVMYAGGPVSSVLVNKYGSRPVVIAGGLLCCLGMVLASFSSSVVQLYLTMGFITGLGLAFNLQPALTIIGKYFYRKRPMANGLAMAGSPVFLSSLAPFNQYLFNTFGWKGSFLILGSLLLNACVAGSLMRPLGPNQTTSKSKNKTGKTEDDSSPKKIKTKKSTWEKVNKYLDFSLFKHRGFLIYLSGNVIMFLGFFAPIIFLAPYAKDQGIDEYSAAFLLSVMAFVDMFARPSVGLIANSKYIRPRIQYFFSFAIMFNGVCHLLCPLAQDYTSLVLYAVFFGLGFGSVSSVLFETLMDLVGAPRFSSAVGLVTIVECGPVLLGPPLAGKLVDLTGEYKYMYMSCGAIVVAASVWLLIGNAINYRLLAKERKEENARQKTRESEPLSKSKHSEDVNVKVSNAQSVTSERETNI
# Variants of: B1
# Settings: with dlg1_human DLG1, Q12959
row,Variant,effect of a mutation on the interaction
1,S437E;S441E,increasing interaction strength

# Variants of: B2
# Settings: with scrib_human SCRIB
# Target sequence in this assay (Q14160 whole entry): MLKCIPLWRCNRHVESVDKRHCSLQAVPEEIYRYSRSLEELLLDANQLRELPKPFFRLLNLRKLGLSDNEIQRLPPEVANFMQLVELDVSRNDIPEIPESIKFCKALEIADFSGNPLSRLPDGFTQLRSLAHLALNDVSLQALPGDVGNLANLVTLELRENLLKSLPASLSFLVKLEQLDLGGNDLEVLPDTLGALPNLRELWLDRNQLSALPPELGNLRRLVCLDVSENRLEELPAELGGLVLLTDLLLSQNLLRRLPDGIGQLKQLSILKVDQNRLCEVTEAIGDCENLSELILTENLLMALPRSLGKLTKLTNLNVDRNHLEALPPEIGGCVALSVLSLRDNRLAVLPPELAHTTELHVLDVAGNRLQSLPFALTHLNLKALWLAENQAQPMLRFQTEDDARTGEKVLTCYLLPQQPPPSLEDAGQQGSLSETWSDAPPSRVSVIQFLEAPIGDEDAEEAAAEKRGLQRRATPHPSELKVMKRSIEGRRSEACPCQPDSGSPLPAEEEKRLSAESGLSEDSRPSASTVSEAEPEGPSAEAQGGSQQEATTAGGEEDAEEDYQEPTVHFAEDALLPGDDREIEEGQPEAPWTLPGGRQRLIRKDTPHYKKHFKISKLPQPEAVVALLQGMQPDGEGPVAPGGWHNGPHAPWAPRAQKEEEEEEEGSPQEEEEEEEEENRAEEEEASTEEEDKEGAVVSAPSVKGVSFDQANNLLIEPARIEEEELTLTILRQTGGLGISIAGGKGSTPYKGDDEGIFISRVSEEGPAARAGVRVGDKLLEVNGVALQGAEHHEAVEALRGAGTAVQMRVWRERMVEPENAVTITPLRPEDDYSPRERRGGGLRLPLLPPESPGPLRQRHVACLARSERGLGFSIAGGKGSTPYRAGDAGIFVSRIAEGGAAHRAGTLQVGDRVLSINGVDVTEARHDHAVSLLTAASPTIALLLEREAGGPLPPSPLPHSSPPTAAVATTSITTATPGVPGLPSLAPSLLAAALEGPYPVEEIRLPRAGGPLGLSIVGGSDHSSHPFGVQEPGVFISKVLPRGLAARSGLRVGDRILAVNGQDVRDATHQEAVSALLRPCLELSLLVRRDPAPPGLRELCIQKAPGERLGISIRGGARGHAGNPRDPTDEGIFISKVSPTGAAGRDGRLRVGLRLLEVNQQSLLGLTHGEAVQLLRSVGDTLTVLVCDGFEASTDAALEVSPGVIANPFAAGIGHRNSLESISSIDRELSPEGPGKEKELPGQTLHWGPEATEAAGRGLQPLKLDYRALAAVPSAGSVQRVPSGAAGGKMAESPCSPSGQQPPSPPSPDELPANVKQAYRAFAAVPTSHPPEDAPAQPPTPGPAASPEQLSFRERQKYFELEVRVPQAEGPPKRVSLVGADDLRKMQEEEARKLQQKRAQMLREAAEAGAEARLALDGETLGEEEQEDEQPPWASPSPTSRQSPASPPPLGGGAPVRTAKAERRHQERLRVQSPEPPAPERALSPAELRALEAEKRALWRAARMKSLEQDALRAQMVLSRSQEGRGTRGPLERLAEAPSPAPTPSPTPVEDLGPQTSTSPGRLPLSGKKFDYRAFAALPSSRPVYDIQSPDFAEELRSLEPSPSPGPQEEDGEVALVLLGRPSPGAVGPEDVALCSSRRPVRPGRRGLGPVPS
row,Variant,effect of a mutation on the interaction
1,T1320E,disrupting interaction strength

# Variants of: B2
# Settings: with dlg1_human DLG1, Q12959
# Target sequence in this assay (Q12959 whole entry, looked up): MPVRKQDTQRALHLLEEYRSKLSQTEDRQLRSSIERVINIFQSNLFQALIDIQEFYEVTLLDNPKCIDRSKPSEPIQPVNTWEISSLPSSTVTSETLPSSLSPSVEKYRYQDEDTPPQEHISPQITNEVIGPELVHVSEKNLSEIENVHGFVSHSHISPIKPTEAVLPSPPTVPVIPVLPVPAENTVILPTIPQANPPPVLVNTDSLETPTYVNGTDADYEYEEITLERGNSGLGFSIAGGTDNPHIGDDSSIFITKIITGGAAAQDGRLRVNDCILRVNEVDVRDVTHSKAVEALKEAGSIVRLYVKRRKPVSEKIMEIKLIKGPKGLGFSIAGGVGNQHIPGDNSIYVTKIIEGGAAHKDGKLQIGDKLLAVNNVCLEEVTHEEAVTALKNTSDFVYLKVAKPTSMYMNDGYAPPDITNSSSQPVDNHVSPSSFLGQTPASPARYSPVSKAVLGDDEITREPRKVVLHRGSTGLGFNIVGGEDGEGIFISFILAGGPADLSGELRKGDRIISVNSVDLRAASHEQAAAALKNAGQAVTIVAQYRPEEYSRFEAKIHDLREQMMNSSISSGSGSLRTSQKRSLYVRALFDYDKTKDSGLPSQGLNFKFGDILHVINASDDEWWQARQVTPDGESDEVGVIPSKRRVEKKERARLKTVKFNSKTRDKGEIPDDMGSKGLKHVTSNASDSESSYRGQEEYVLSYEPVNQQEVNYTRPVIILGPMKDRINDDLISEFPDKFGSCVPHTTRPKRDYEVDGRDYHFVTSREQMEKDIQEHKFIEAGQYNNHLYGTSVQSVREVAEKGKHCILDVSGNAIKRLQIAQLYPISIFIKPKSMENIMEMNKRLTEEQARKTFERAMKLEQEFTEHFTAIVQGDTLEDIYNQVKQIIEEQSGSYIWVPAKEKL
row,Variant,effect of a mutation on the interaction
1,T1320E,disrupting interaction strength

# Variants of: B3
# Settings: with scrib_human SCRIB
# Target sequence in this assay (Q14160 whole entry): as the sequence (Q14160 whole entry) above
row,Variant,effect of a mutation on the interaction
1,S212E,with no effect

# Variants of: B4
# Settings: with scrib_human SCRIB
# Target sequence in this assay (Q14160 whole entry): as above
row,Variant,effect of a mutation on the interaction
1,S571E,decreasing interaction strength

# Variants of: B5
# Settings: with scrib_human SCRIB
# Target sequence in this assay (Q14160 whole entry): as above
row,Variant,effect of a mutation on the interaction
1,S472E,decreasing interaction strength
